Measured values reported in US20260250363A1.
Where two headings read alike, the source gives them in different places.

Columns and labels:
[1] = molecular target: SARS-CoV-2 +E484K B.1.1.7 Spike Protein (R&D, Cat. #10824-CV) (SARS-CoV-2) (UniProt P0DTC2); assay: BLI (ForteBio), mAb on AHC sensor, spike in solution
[2] = molecular target: SARS-CoV-2 +E484K B.1.1.7 Spike Protein (R&D, Cat. #10824-CV) (SARS-CoV-2) (UniProt P0DTC2); assay: direct ELISA on coated spike
[3] = molecular target: SARS-CoV-2 +E484K B.1.1.7 Spike Protein (R&D, Cat. #10824-CV) (SARS-CoV-2) (UniProt P0DTC2); assay: competition ELISA: blocks biotin-ACE2 binding to coated spike
[4] = molecular target: SARS-CoV-2 +E484K B.1.1.7 Spike Protein (R&D, Cat. #10824-CV) (SARS-CoV-2) (UniProt P0DTC2); assay: as above; remark: listed apart in the source

Substance	Kd [1] [nM]	EC50 [2] [nM]	IC50 [3] [nM]	IC50 [4] [nM]
Casirivimab (antibody)	3.4	0.0584	3.13	3.3
Imdevimab (antibody)	0.831	0.0505		
